Legend:
[1] = molecular target: HLA-A*29:02; assay: IEDB peptide-MHC binding, purified MHC/competitive/fluorescence; filed as Kd, often an IC50 or EC50 that approximates it; ≥ and ≤ were set here for values at or beyond the usual limits of such assays; details: source organism: Crocodilepox virus
[2] = molecular target: HLA-A*32:07; assay: as above; details: source organism: Crocodilepox virus
[3] = molecular target: HLA-B*15:42; assay: as above; details: source organism: Crocodilepox virus
[4] = molecular target: HLA-B*45:06; assay: as above; details: source organism: Crocodilepox virus
[5] = molecular target: HLA-B*83:01; assay: as above; details: source organism: Crocodilepox virus
[6] = molecular target: HLA-A*01:01; assay: IEDB peptide-MHC binding, purified MHC/competitive/fluorescence; ≥ and ≤ were set here for values at or beyond the usual limits of such assays; details: source organism: Vaccinia virus WR
[7] = molecular target: HLA-A*02:01; assay: as above; details: source organism: Vaccinia virus WR
[8] = molecular target: HLA-A*03:01; assay: as above; details: source organism: Vaccinia virus WR
[9] = molecular target: HLA-A*11:01; assay: as above; details: source organism: Vaccinia virus WR
[10] = molecular target: HLA-A*24:02; assay: as above; details: source organism: Vaccinia virus WR
[11] = molecular target: HLA-B*15:01; assay: as above; details: source organism: Vaccinia virus WR
[12] = molecular target: HLA-A*01:01; assay: IEDB peptide-MHC binding, purified MHC/direct/fluorescence; filed as Kd, often an IC50 or EC50 that approximates it; ≥ and ≤ were set here for values at or beyond the usual limits of such assays
[13] = molecular target: HLA-A*02:01; assay: as above
[14] = molecular target: HLA-A*03:01; assay: as above
[15] = molecular target: HLA-A*11:01; assay: as above; details: source organism: Camelpox virus M-96
[16] = molecular target: HLA-A*31:01; assay: as above; details: source organism: Camelpox virus M-96
[17] = molecular target: HLA-A*68:02; assay: as above; details: source organism: Camelpox virus M-96
[18] = molecular target: HLA-A*69:01; assay: as above
[19] = molecular target: HLA-A*80:01; assay: as above; details: source organism: Camelpox virus M-96
[20] = molecular target: HLA-B*07:02; assay: as above
[21] = molecular target: HLA-B*08:01; assay: as above
[22] = molecular target: HLA-B*08:03; assay: as above
[23] = molecular target: HLA-B*27:05; assay: as above
[24] = molecular target: HLA-B*40:01; assay: as above; details: source organism: Camelpox virus M-96
[25] = molecular target: HLA-B*46:01; assay: as above
[26] = molecular target: HLA-B*48:01; assay: as above
[27] = molecular target: HLA-B*57:01; assay: as above
[28] = molecular target: HLA-B*58:01; assay: as above
[29] = molecular target: HLA-A*26:01; assay: IEDB peptide-MHC binding, purified MHC/competitive/fluorescence; filed as Kd, often an IC50 or EC50 that approximates it; ≥ and ≤ were set here for values at or beyond the usual limits of such assays; details: source organism: Vaccinia virus WR
[30] = molecular target: HLA-A*26:02; assay: as above
[31] = molecular target: HLA-A*26:03; assay: as above; details: source organism: Vaccinia virus WR
[32] = molecular target: HLA-B*15:01; assay: as above; details: source organism: Vaccinia virus WR
[33] = molecular target: HLA-B*15:17; assay: as above; details: source organism: Vaccinia virus WR
[34] = molecular target: HLA-B*35:01; assay: as above; details: source organism: Vaccinia virus WR
[35] = molecular target: HLA-A*02:11; assay: IEDB peptide-MHC binding, purified MHC/direct/fluorescence; filed as Kd, often an IC50 or EC50 that approximates it; ≥ and ≤ were set here for values at or beyond the usual limits of such assays; details: source organism: Bacillus cereus 03BB108
[36] = molecular target: HLA-A*02:12; assay: as above; details: source organism: Bacillus cereus 03BB108
[37] = molecular target: HLA-A*02:19; assay: as above; details: source organism: Bacillus cereus 03BB108
[38] = molecular target: HLA-A*26:03; assay: as above; details: source organism: Bacillus cereus 03BB108
[39] = molecular target: HLA-B*08:02; assay: as above; details: source organism: Bacillus cereus 03BB108
[40] = molecular target: HLA-B*15:01; assay: as above; details: source organism: Bacillus anthracis
[41] = molecular target: HLA-B*15:02; assay: as above; details: source organism: Bacillus cereus 03BB108
[42] = molecular target: HLA-B*15:17; assay: as above; details: source organism: Bacillus anthracis
[43] = molecular target: HLA-B*35:01; assay: as above; details: source organism: Bacillus cereus 03BB108
[44] = molecular target: HLA-A*11:01; assay: IEDB peptide-MHC binding, purified MHC/competitive/fluorescence; filed as Kd, often an IC50 or EC50 that approximates it; ≥ and ≤ were set here for values at or beyond the usual limits of such assays; details: source organism: Bacillus anthracis str. A0488
[45] = molecular target: HLA-A*68:02; assay: as above; details: source organism: Bacillus anthracis str. A0488
[46] = molecular target: HLA-B*15:09; assay: as above; details: source organism: Bacillus anthracis str. A0488
[47] = molecular target: HLA-B*39:01; assay: as above; details: source organism: Bacillus anthracis str. A0488
[48] = source organism: Camelpox virus M-96
[49] = source organism: Bacillus anthracis
[50] = source organism: Bacillus cereus 03BB108

RVRSMANVY was tested, and the Kd [1] was 0.0151 µM, the Kd [2] was 0.0157 µM and the Kd [3] was ≥ 5 µM. For the same sequence, the Kd [4] was ≥ 5 µM and the Kd [5] was ≥ 5 µM.

For SLFTEQAFY, the IC50 [6] was 32 µM, the IC50 [7] was 15 µM and the IC50 [8] was 7.04 µM. The IC50 [9] was 7.85 µM, the IC50 [10] was 31.2 µM and the IC50 [11] was 3.93 µM. The Kd [12, 48] was ≥ 20 µM, the Kd [13, 48] was ≥ 20 µM and the Kd [14, 48] was 4.41 µM. For the same sequence, the Kd [15] was 1.11 µM, the Kd [16] was ≥ 20 µM and the Kd [17] was ≥ 20 µM. For the same sequence, the Kd [18, 48] was ≥ 20 µM, the Kd [19] was 0.0086 µM and the Kd [20, 48] was ≥ 20 µM. For the same sequence, the Kd ([21]; source organism: Variola virus) was ≥ 20 µM, the Kd ([22]; source organism: Variola virus) was ≥ 20 µM and the Kd [23, 48] was ≥ 20 µM. The Kd [24] was ≥ 20 µM, the Kd [25, 48] was ≥ 20 µM and the Kd [26, 48] was ≥ 20 µM. For the same sequence, the Kd [27, 48] was ≥ 20 µM, the Kd ([28]; source organism: Variola virus) was ≥ 20 µM and the Kd [29] was ≥ 5 µM. The Kd ([30]; source organism: Vaccinia virus WR) was ≥ 20 µM, the Kd [31] was ≥ 20 µM and the Kd [32] was 0.959 µM. The Kd [33] was ≥ 20 µM and the Kd [34] was 1.15 µM.

In the case of KVQEWYLSY, the Kd [12, 49] is reported as ≥ 5 µM, the Kd [13, 49] is reported as 14.3 µM and the Kd [35] is reported as 0.308 µM. For the same sequence, the Kd [36] was 1.63 µM, the Kd [37] was ≥ 20 µM and the Kd [14, 49] was 0.132 µM. The Kd [38] was ≥ 20 µM, the Kd [18, 49] was 15 µM and the Kd [20, 49] was 5.54 µM. For the same sequence, the Kd [21, 50] was ≥ 20 µM, the Kd [39] was ≥ 20 µM and the Kd [22, 50] was 0.324 µM. For the same sequence, the Kd [40] was 0.443 µM, the Kd [41] was 1.48 µM and the Kd [42] was 0.121 µM. The Kd [23, 49] was 0.0517 µM, the Kd [43] was 2.06 µM and the Kd [25, 49] was ≥ 20 µM. For the same sequence, the Kd [26, 49] was ≥ 20 µM, the Kd [27, 49] was ≥ 20 µM and the Kd [28, 49] was 3.62 µM. It also gave a Kd [44] of 0.0422 µM, a Kd ([30]; source organism: Bacillus anthracis str. A0488) of 1.21 µM and a Kd [45] of 3.4 µM. The Kd [46] was ≥ 20 µM and the Kd [47] was 0.0869 µM.
